The chains are these.
B1: 12C08 (antibody, V domains shown)
VH: EEQLVESGGGLVQPGGSLRFSCEVSGFTFRSYWMSWVRQAPGKGLEWVANIKEDGSEKYYVDSVKGRFTISRDNAKNSLYLQMNSLRAEDTAVYYCARERREGYFDQWGQGTLVTVSS
VL: DIQMTQSPSTLSAFVGDRVTITCRASQSIGSWLAWYQQKPGKAPDLLIYKASSLESGVPSRFSGSGSGTEFTLTISSLQPDDFATYYCQQYKSYSWTFGQGTKVEIK
B2: 13E03 (antibody, V domains shown)
VH: EIQLVESGGGLVQPGGSLRLSCAASGFTFSSYWMSWVRQTPGKGLEWVANIKEDGSEKYHVDSVKGRYTISRDNAKNSLYLQMSSLRADDTAVYYCARERREGYFDYWGQGTVVTASS
VL: B1 VL with F14S, S31R, S65G, I106V
B3: 01B08 B01 (antibody, V domains shown)
VH: QVQLVQSGAEVKKPGASVKVSCKAAGYTFTGYYMHWVRQAPGQGLEWMGWINPYRSGTNFAQKFQDRVTMTRDTSISTAYMELSSLSSDDTAIYYCARGAGTTFYNAFDIWGQGTMVTVSS
VL: DIQMTQSPSAMSASVGDRVTITCRASQGINNYLAWFQQKPGKVPKRLIYAASSLQSGVPSRFSGSGSGTEFTLTISSLQPEDFATYYCLQHNRYPFTFGPGTKVDIK
B4: 08B12 (antibody, V domains shown)
VH: EVQVVESGGGLVKPGGSLRLSCVASGFTFKKYNMNWVRQAPGKGLEWVSSISSSSTYIYYADSVKGRFTISRDNAKNSLNLQMNSLRAEDTAVYYCAGGGYFDYWGQGTLVTVSS
B5: 13D02 (antibody, V domains shown)
VH: B4 VH with V4L, V23A, K30S, K31R, Y32F, A40T, S54R, T56S, N77K, N80Y
VL: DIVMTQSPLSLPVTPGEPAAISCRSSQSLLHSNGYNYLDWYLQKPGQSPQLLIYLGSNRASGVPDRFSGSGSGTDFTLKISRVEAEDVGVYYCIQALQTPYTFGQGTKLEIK
B6: 01F05 C01 (antibody, V domains shown)
VH: QVQLVQSGAEVKKPGASVKVSCKASGYTFTAYYIHWVRQAPGQGLEWMGWINPNSGGTNYAQMFQGRVTMTRDTSISAAYMELSRLSSDDTAVYYCTRGTPRYNWKSYNYGMDVWGQGTTVTVSS
VL: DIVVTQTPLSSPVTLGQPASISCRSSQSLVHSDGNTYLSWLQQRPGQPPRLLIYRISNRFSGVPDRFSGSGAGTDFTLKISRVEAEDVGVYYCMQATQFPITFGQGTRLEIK
B7: 11A10 (antibody, V domains shown)
VH: B1 VH with E2V, G9R, F20L, E23A, V24A, R30S, Q107Y
VL: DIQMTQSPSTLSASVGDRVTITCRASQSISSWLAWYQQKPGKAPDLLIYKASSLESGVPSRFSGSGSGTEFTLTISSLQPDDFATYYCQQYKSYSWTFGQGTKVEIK
B8: 07B09 (antibody, V domains shown)
VH: EVQLVESGGGLVQPGGSLRLSCAASGFTFSSYWMTWVRQAPGKGLEWVANMRKDGSEKYYVDSVKGRFTISRDNAKNSLYLHMNSLRAEDTAVYYCARERSTGYFDYWGQGTLVIVSS
VL: B1 VL with F14S, S28R, G30S, S31T, P40A, D45K, S76R, Q79E, K92I, S95T
B9: 06G07 A04 (antibody, V domains shown)
VH: B1 VH with E2V, F20L, E23A, V24A, R30S, Y32F, Y80F, E102T, Q107Y
VL: B1 VL with P8S, F14S, Y36F, D45K, T85I
B10: 13E03 antibody (antibody, V domains shown)
VH: B2 VH
VL: B1 VL with F14S, S31R, S65G, I106V
B11: 11B11 (antibody, V domains shown)
VH: B1 VH with E2V, F20L, E23A, V24A, R30S, S35T, L81V, V93I, Q107Y
VL: B1 VL with T10I, F14S, V19A, S28R, G30S, S31T, Y36F, D45K
B12: 08G12 (antibody, V domains shown)
VH: EVQLVESGGGLVQSGGSLRLSCAASGFTFSRFWMTWVRQAPGKGLEWVANIKEDGSEKYYVDSVKGRFTISRDNTKNSLYLQMNSLRAEDTAVYYCARERREGYFDYWGQGTLVTVSS
VL: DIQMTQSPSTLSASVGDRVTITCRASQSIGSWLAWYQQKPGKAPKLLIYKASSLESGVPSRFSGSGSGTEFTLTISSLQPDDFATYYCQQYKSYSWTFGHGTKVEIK
B13: 12C08 antibody (antibody, V domains shown)
VH: B1 VH
VL: B1 VL
B14: OKT3 (antibody, V domains shown)
VH: QVQLVQSGGGVVQPGRSLRLSCKASGYTFTRYTMHWVRQAPGKGLEWIGYINPSRGYTNYNQKFKDRFTISRDNSKNTAFLQMDSLRPEDTGVYFCARYYDDHYCLDYWGQGTPVTVSS
VL: DIQMTQSPSSLSASVGDRVTITCSASSSVSYMNWYQQTPGKAPKRWIYDTSKLASGVPSRFSGSGSGTDYTFTISSLQPEDIATYYCQQWSSNPFTFGQGTKLQITR

14 molecules from US20260146089A1 (published 2026) can be followed below.

Positions count from the first letter of the chain named.

The first assay deals with CD3ε/δ heterodimer. In words: sensorgram.
The koff is a measure of how fast the partners let go of each other. The molecule B1 had a koff of 0.000334 s⁻¹.
The same measure, in the same setting: then B2, with 0.00198 s⁻¹.

For a further assay, the target named is T1, human CD3ε on the cell surface (Jurkat cells, Th1 cells) (UniProt P07766 23-207). The experiment in a line: FACS Jurkat.
A word on the EC50: it is the concentration needed to bring the measured effect to its halfway point. Low values mean a more potent agent, high ones a less potent agent. As for B3, the EC50 was determined as 23 nM.
On the same count and under the same terms, then B4, with 0.68 nM; and B5, with 0.59 nM; and B6, with 1.3 nM.
The same measure, in the same setting: in the case of B7 it was 36 nM.
Same read-out and setting: then B8, with 25 nM; and B9, with 27 nM.
Molecule B10 returned an EC50 of 35 nM. The EC50 values of the last two molecules are within 1.5-fold of each other.
On to B11, for which a half-maximal effect (EC50) was put at 48 nM. The EC50 values of the last two molecules are within 1.5-fold of each other.
The same measure, in the same setting: in the case of B12 it was 20 nM; in that of B13, 34 nM.

A further assay addresses T1, human CD3ε on the cell surface (Jurkat …). The experiment in a line: FACS Jurkat. The source holds these as a separate data set.
Regarding B3, the midpoint of the response, the EC50, lay at 23 nM.
Molecule B4 yielded an EC50 of 0.68 nM.
Same read-out and setting: in the case of B5 it was 0.59 nM.
On the same count and under the same terms, in the case of B6 it was 1.3 nM; in that of B7, 36 nM; in that of B8, 25 nM.
Still for that read-out and setting: then B9, with 27 nM; and B10, with 35 nM.
Molecule B11 came in with a concentration for a half-maximal effect (EC50) of 48 nM.
On the same count and under the same terms, then B12, with 20 nM; and B13, with 34 nM.

For the next assay, the target named is T2, Jurkat (UniProt P07766 23-207). In words: FACS Jurkat.
The molecule B14 came in with an EC50 of 0.55 nM.

Another assay deals with T2, Jurkat. In words: FACS Jurkat. The source holds these as a separate data set.
The molecule B14 came in with an EC50 of 0.55 nM.
